Measurements as given in patent US20240409635A1 (VIBRANT PHARMA, published 2024).
Values belong to the binder of their own block, whether it stands above or below them.

Legend:
[1] = target: epidermal growth factor receptor (EGFR) on human tumor cells (human, UniProt P00533 25-1210); assay: cell-based or functional assay
[2] = target: T1, recombinant human CD3ε/δ protein (ACRO systems, CDD-H52W1) (human, UniProt P07766 23-126; P04234 22-105); assay: BLI, antibody captured on AHC sensor
T1 construct: Bought reagent
T1 sequence (P07766 23-126, stated change not applied, chain 1 of 2): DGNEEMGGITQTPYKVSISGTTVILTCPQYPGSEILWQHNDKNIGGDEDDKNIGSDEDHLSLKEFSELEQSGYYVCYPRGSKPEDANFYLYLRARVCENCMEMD
T1 sequence (P04234 22-105, stated change not applied, chain 2 of 2): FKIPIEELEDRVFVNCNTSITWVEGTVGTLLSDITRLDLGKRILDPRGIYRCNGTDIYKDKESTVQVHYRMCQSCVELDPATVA
Experimental: (§1) Antibodies were first captured onto an anti-human IgG Fc coated AHC biosensor (Anti-hIgG Fc, Sartorius, 18-5060). Antibodies were diluted to 5 μg/mL and 1.5 nm protein was coupled to the AHC sensor surface in 0.02% PBST.
(§2) After the sensor captures the antibodies, it is used to bind and dissociate with different concentrations of analytes to obtain the KD value of the interaction. The experimental parameters are as follows: Baseline1: 60 s, Loading: 240 s, Baseline2: 180 s, Association: 240 s, Dissociation: 600 s, High sensitivity kinetics: 2 Hz. Kinetic constants were derived based on the rate equation for 1:1 Langmuir binding to obtain equilibrium dissociation constants (KD). The Data Analysis HT 12 software (Sartorius, 50-5029) was used to simultaneously fit binding and dissociation curves to calculate Kₒₙ, and Koff. The affinity KD was calculated based on the below formula: KD=Koff/Kₒₙ.

[3] = target: T2, recombinant human EGFR protein (ACRO systems, EGR-H5222) (human, UniProt P00533 25-645); assay: BLI, antibody captured on AHC sensor
T2 construct: Bought reagent
Experimental: as §1, §2

[4] = target: T3, recombinant human protein CD3ε/δ (ACRO systems, CDD-H52W1) (human, UniProt P07766 23-126; P04234 22-105); assay: BLI, antibody on AHC sensor, antigen as analyte
T3 construct: Bought heterodimer
T3 sequence (P07766 23-126, stated change not applied, chain 1 of 2): as the sequence (P07766 23-126, stated change not applied, chain 1 of 2) above
T3 sequence (P04234 22-105, stated change not applied, chain 2 of 2): as the sequence (P04234 22-105, stated change not applied, chain 2 of 2) above
Experimental: as §1
as §2, with “binds” for “is used to bind”, “dissociates” for “dissociate”, “Kₒₙ” for “Kₒₙ,”

[5] = target: T4, recombinant human EGFR protein (ACRO systems, EGR-H5222) (human, UniProt P00533 25-645); assay: BLI, antibody on AHC sensor, antigen as analyte
T4 construct: Bought
Experimental: as §1
as §2, with “binds” for “is used to bind”, “dissociates” for “dissociate”, “Kₒₙ” for “Kₒₙ,”

[6] = target: T5, recombinant human tumor antigen CEACAM-6 (ACRO systems, CE6-H5223) (human, UniProt P40199 35-320); assay: BLI, antibody on AHC sensor, antigen as analyte
T5 construct: Bought
T5 sequence (looked up): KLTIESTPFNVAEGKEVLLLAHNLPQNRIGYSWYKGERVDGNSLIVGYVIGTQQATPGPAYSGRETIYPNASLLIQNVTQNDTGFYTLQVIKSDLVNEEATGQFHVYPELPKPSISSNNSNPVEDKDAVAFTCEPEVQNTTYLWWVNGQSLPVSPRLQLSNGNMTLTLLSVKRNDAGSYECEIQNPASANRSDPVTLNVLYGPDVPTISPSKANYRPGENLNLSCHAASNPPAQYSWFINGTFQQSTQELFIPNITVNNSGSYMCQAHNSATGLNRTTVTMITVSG
Experimental: as §1
as §2, with “binds” for “is used to bind”, “dissociates” for “dissociate”, “Kₒₙ” for “Kₒₙ,”

[7] = target: T6, keyhole limpet haemocyanin; assay: ELISA, KLH coated, 100 nM antibody
T6 construct: Bought reagent, coated at 5 ug/mL; also called KLH
Experimental: (§3) The experimental steps are as follows [0420] […] (4) 50 μl anti-human IgG-HRP conjugate (Sigma, AP113P, 1:8000 dilution) was added to each well; the plate was incubated for 1 h at room temperature and washed 6 times with 0.05% PBST; [0424] (5) 50 μl of TMB chromogenic solution (Biopanda, TMB-S-001) was added to each well and incubated at room temperature for 10-15 minutes for color development; [0425] (6) 50 μl of 1M HCl was added to each well to stop the color development, and the absorbance at 450 nm was measured using a microplate reader (Biotek, SYNERGY LX); Data analysis: If the ratio between the absorbance of the antibody and the absorbance of the blank control PBS is ≥3, there is too much non-specific binding.

Insulin = target: T7, Insulin; assay: ELISA, insulin coated, 100 nM antibody
T7 construct: Bought reagent, coated at 5 ug/mL
Experimental: as §3

[8] = target: T8, recombinant human c-Met protein (human, UniProt P08581 25-932); assay: BLI, antibody on AHC sensor
T8 construct: Bought
T8 sequence (P08581 25-932 limits assumed): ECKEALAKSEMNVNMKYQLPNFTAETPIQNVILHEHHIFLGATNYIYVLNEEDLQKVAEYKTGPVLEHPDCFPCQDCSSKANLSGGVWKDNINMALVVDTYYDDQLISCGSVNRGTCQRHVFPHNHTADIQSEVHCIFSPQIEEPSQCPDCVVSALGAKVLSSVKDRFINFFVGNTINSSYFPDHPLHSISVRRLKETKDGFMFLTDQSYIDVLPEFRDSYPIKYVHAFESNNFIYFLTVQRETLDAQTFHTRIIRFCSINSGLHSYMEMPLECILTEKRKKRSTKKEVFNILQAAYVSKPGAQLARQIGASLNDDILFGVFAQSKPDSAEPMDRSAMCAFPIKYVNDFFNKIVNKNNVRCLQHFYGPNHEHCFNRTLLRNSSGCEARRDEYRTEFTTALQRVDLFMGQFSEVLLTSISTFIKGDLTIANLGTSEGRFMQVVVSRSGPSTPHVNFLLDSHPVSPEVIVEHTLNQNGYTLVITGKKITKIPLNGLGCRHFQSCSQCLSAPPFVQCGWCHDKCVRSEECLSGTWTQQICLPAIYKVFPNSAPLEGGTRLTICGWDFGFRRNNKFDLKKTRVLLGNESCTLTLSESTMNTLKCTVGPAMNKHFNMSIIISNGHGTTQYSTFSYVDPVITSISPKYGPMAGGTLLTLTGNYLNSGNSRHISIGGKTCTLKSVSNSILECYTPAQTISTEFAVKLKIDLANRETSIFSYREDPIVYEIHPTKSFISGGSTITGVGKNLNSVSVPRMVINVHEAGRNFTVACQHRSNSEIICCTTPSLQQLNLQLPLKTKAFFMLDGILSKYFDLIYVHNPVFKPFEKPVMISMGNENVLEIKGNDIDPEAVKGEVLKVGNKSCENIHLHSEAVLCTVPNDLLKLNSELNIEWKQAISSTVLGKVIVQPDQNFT
Experimental: as §1
as §2, with “Kₒₙ” for “Kₒₙ,”

B2: EGFR-BsAb (CD3 TA1-Fab x EGFR VHH bispecific control antibody) (bispecific antibody, human IgG4 S228P, kappa, F234A L235A)
heavy: EVKLLESGGGLVQPKGSLKLSCAASGFTFNTYAMNWVRQAPGKGLEWVARIRSKYNNYATYYADSVKDRFTISRDDSQSILYLQMNNLKTEDTAMYYCVRHGNFGNSYVSWFAYWGQGTLVTVSSASTKGPSVFPLAPCSRSTSESTAALGCLVKDYFPEPVTVSWNSGALTSGVHTFPAVLQSSGLYSLSSVVTVPSSSLGTKTYTCNVDHKPSNTKVDKRVESKYGPPCPPCPAPEAAGGPSVFLFPPKPKDTLMISRTPEVTCVVVDVSQEDPEVQFNWYVDGVEVHNAKTKPREEQFNSTYRVVSVLTVLHQDWLNGKEYKCKVSNKGLPSSIEKTISKAKGQPREPQVYTLPPCQEEMTKNQVSLWCLVKGFYPSDIAVEWESNGQPENNYKTTPPVLDSDGSFFLYSRLTVDKSRWQEGNVFSCSVMHEALHNHYTQKSLSLSL
chain: QVQLQESGGGSVQAGGSLKLSCAASGRGFSRYAMGWFRQAPGQDREFVATISWTNSTDYADSVKGRFAISRDNAKNTAYLQMNSLKPEDTAVYYCAADKWASSTRSIDYDYWGQGIQVTVSSESKYGPPCPPCPAPEAAGGPSVFLFPPKPKDTLMISRTPEVTCVVVDVSQEDPEVQFNWYVDGVEVHNAKTKPREEQFNSTYRVVSVLTVLHQDWLNGKEYKCKVSNKGLPSSIEKTISKAKGQPREPQVCTLPPSQEEMTKNQVSLSCAVKGFYPSDIAVEWESNGQPENNYKTTPPVLDSDGSFFLVSRLTVDKSRWQEGNVFSCSVMHEALHNRFTQKSLSLSL
light: QAVVTQESALTTSPGETVTLTCRSSTGAVTTSNYANWVQEKPDHLFTGLIGGTNKRAPGVPARFSGSLIGDKAALTITGAQTEDEAIYFCALWYSNLWVFGGGTKVEIKRTVAAPSVFIFPPSDEQLKSGTASVVCLLNNFYPREAKVQWKVDNALQSGNSQESVTEQDSKDSTYSLSSTLTLSKADYEKHKVYACEVTHQGLSSPVTKSFNRGEC
notes: also called anti-EGFR-BsAb
Kd [4]: 6.43 nM | koff [4]: 0.00338 s⁻¹ | kon [4]: 526000 M⁻¹ s⁻¹ | Kd [5]: 4.43 nM | koff [5]: 0.00519 s⁻¹ | kon [5]: 1.17e+06 M⁻¹ s⁻¹ | koff [6]: 0.000247 s⁻¹ | kon [6]: 222000 M⁻¹ s⁻¹

B3: CEACAM6-BsAb (CD3 TA1-Fab x CEA-CAM6 VHH bispecific control antibody) (bispecific antibody, human IgG4 S228P, kappa, F234A L235A)
heavy: B2 heavy
chain: QVKLEESGGGLVQAGGSLRLSCRTSGRTNSVYTMGWFRQAPGKEREFVAQIMWGAGTNTHYADSVKGRFTISRDSAESTVYLQMNSLKPEDTAVYYCAANRGIPIAGRQYDYWGQGTQVTVSSESKYGPPCPPCPAPEAAGGPSVFLFPPKPKDTLMISRTPEVTCVVVDVSQEDPEVQFNWYVDGVEVHNAKTKPREEQFNSTYRVVSVLTVLHQDWLNGKEYKCKVSNKGLPSSIEKTISKAKGQPREPQVCTLPPSQEEMTKNQVSLSCAVKGFYPSDIAVEWESNGQPENNYKTTPPVLDSDGSFFLVSRLTVDKSRWQEGNVFSCSVMHEALHNRFTQKSLSLSL
light: B2 light
notes: also called anti-CEA-CAM6-BsAb
Kd [4]: 5.73 nM | koff [4]: 0.00421 s⁻¹ | kon [4]: 734000 M⁻¹ s⁻¹ | koff [5]: 0.00143 s⁻¹ | kon [5]: 570000 M⁻¹ s⁻¹ | Kd [6]: 1.64 nM | koff [6]: 0.000336 s⁻¹ | kon [6]: 206000 M⁻¹ s⁻¹

B4: CEA-BsAb bispecific control antibody (TA1-Fab anti-CD3 x CEA VHH) (bispecific antibody, human IgG4 S228P, kappa, F234A L235A)
heavy: B2 heavy
chain: EVQLVESGGGFVQAGESLTLSCTSSTLTFTPYRMAWYRQAPGKQRDLVADISSGDGRTTNYADFAKGRFTISRDNIKNTVFLRMTNLKPEDTAVYYCNTFVSFVGIARSWGQGTQVTVSSESKYGPPCPPCPAPEAAGGPSVFLFPPKPKDTLMISRTPEVTCVVVDVSQEDPEVQFNWYVDGVEVHNAKTKPREEQFNSTYRVVSVLTVLHQDWLNGKEYKCKVSNKGLPSSIEKTISKAKGQPREPQVCTLPPSQEEMTKNQVSLSCAVKGFYPSDIAVEWESNGQPENNYKTTPPVLDSDGSFFLVSRLTVDKSRWQEGNVFSCSVMHEALHNRFTQKSLSLSL
light: B2 light
notes: IgG4
absorbance ratio to PBS blank [7]: 2.16 | absorbance ratio to PBS blank (Insulin): 1.24

B7: CEA-CAM6-BsAb bispecific control antibody (TA1-Fab anti-CD3 x CEA-CAM6 VHH) (bispecific antibody, human IgG4 S228P, kappa, F234A L235A)
heavy: B2 heavy
chain: B3 chain
light: B2 light
notes: IgG4
absorbance ratio to PBS blank [7]: 0.45 | absorbance ratio to PBS blank (Insulin): 0.87

More lines, main results first:

Kd [2]: 9.03 nM | koff [2]: 0.000748 s⁻¹ | kon [2]: 82900 M⁻¹ s⁻¹ | Kd [3]: 9.85 nM | koff [3]: 0.00305 s⁻¹ | kon [3]: 309000 M⁻¹ s⁻¹
B1: EGFR-BsAb bispecific control antibody (TA1-Fab CD3 x EGFR VHH) (bispecific antibody, human IgG4 S228P, kappa, F234A L235A)
heavy: B2 heavy
chain: B2 chain
light: B2 light
notes: also called anti-EGFR-BsAb
killing EC50, NCI-H157 cells (EGFR-positive) [1]: 0.02 nM | killing EC50, NCI-H1299 cells (EGFR-positive) [1]: 0.0318 nM | killing EC50, NCI-H1395 cells (EGFR-positive) [1]: 0.0108 nM

Kd [8]: 0.523 nM | koff [8]: 0.000367 s⁻¹ | kon [8]: 702000 M⁻¹ s⁻¹
B5: c-Met-BsAb bispecific control antibody (TA1F anti-CD3 Fab x c-Met VHH) (bispecific antibody, IgG4, not shown: a dimerising Fc or GST)
heavy: EVKLLESGGGLVQPKGSLKLSCAASGFTFNTYAMNWVRQAPGKGLEWVARIRSKYNNYATYYADSVKDRFTISRDDSQSILYLQMNNLKTEDTAMYYCVRHGNFGNSYVSWFAYWGQGTLVTVSSASTKGPSVFPLAPCSRSTSESTAALGCLVKDYFPEPVTVSWNSGALTSGVHTFPAVLQSSGLYSLSSVVTVPSSSLGTKTYTCNVDHKPSNTKVDKRV
chain: QVKLEESGGDLVQPGGSLRLSCVGSGSIFSYTAMGWYRQAPGKQRELVATIHSGGNINYADSVKGRFTISRDNTENTVYLQMNSLKPEDTAVYYCWSLLVGPETRYKDFNFWGRGTQVTVSS
light: B2 light
notes: the text gives VH-CH1-Hinge-Fc (IgG4) and VL-CL (kappa)

absorbance ratio to PBS blank [7]: 2.31 | absorbance ratio to PBS blank (Insulin): 1.69
B6: HER2-BsAb bispecific control antibody (TA1-Fab anti-CD3 x HER2 VHH) (bispecific antibody, human IgG4 S228P, kappa, F234A L235A)
heavy: B2 heavy
chain: QVQLVQSGGGLVQAGGSLRLSCAASGRTFSSYAMAWFRQAPGKEREFVAAISWSGANIYVADSVKGRFTISRDNAKDTVYLQMNSLKPEDTAVYYCAVKLGFAPVEERQYDYWGQGTQVTVSSESKYGPPCPPCPAPEAAGGPSVFLFPPKPKDTLMISRTPEVTCVVVDVSQEDPEVQFNWYVDGVEVHNAKTKPREEQFNSTYRVVSVLTVLHQDWLNGKEYKCKVSNKGLPSSIEKTISKAKGQPREPQVCTLPPSQEEMTKNQVSLSCAVKGFYPSDIAVEWESNGQPENNYKTTPPVLDSDGSFFLVSRLTVDKSRWQEGNVFSCSVMHEALHNRFTQKSLSLSL
light: B2 light
notes: IgG4
